Experimental data from patent publication US20120301461A1 (Merck Sharp & Dohme, published 2012).
Numbering of substitutions follows the chain as printed. Numbers in names are those of the source.

Columns and labels:
[1] = target: T1, murine PCSK9, V5- and His-tagged (mPCSK9v5His) (murine, UniProt Q80W65 35-694); assay: kinetic constants of 1B20 Fab; method not named at the table (presumably SPR as in Example 6)
T1 construct: also called mouse PCSK9; not shown: V5 and His tags

[2] = target: T1, murine PCSK9, V5- and His-tagged …; assay: cell-based or functional assay
[3] = target: T1, murine PCSK9, V5- and His-tagged …; assay: SPR (Biacore 2000), Fab captured on anti-Fab IgG, PCSK9 in flow; mean N=3
Description: Anti-Fab IgG (Human specific) (Sigma, catalog #I5260) was covalently coupled to surfaces 1 and 2 of a Sensor Chip CM5 via primary amine groups, using the immobilization wizard with the “Aim for immobilization” option using Biacore™ Amine Coupling Kit (cat #BR-1000-50. A target immobilization of 5000 RU was specified. The wizard uses a 7 minute activation with a 1:1 mixture of 100 mM NHS (N-Hydroxysuccinimide) and 400 mM EDC (1-ethyl-3-(3-dimethylaminopropyl)-carbodiimide), injects the ligand in several pulses to achieve the desired level, then deactivates the remaining surface with a 7 minute pulse of ethanolamine.
Each Fab was captured by flowing a 500 ng/ml solution at 5 or 10 μl/min for 1-1.5 minutes to reach a target RL for an Rₘₐₓ of 100-150 RU for the reaction. 5-10 concentrations of hPCSK9v5His or mPCSK9v5His antigens were flowed across the surface at 30 μl/minute for 3-4 minutes. 15-60 minutes dissociation time was allowed before regeneration of the Anti-Fab surface with a 30 second pulse of 10 mM glycine pH 2.0.

[4] = target: T2, human PCSK9, V5- and His-tagged (hPCSK9v5His) (human, UniProt Q8NBP7 31-692); assay: SPR (Bio-Rad ProteOn), Fab against human PCSK9-V5-His
T2 construct: Recombinant secreted protein; Peptides 31-49 (prodomain) and 153-; also called wt-hPCSK9; wt-PCSK9; not shown: V5 and His tags
T2 sequence (Q8NBP7 31-692 limits assumed): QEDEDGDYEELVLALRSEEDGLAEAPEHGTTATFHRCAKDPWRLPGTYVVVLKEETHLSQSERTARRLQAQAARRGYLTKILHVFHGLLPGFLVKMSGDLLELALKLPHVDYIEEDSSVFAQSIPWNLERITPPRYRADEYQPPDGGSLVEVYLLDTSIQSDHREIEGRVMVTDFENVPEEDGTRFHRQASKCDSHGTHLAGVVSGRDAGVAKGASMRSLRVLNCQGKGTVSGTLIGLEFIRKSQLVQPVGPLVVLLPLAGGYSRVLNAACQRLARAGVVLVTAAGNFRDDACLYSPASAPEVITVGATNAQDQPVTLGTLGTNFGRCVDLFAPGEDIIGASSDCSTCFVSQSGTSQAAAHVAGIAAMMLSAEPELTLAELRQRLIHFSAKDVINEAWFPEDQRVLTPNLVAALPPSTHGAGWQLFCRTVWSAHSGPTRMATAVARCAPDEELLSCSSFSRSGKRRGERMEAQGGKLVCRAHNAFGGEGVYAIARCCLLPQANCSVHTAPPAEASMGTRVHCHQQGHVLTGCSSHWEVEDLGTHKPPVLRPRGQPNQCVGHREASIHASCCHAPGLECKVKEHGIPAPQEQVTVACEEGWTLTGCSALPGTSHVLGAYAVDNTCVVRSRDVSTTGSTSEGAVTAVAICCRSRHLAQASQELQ

[5] = target: T1, murine PCSK9, V5- and His-tagged …; assay: SPR (Biacore 2000), IgG captured on goat anti-human IgG, PCSK9 in flow; mean N=2
Description: A goat Anti-Human IgG (Caltag, catalog #H10700) was covalently coupled to surfaces 1 and 2 of a Sensor Chip CM5 via primary amine groups, using the immobilization wizard with the “Aim for immobilization” option using Biacore™ Amine Coupling Kit (cat #BR-1000-50. A target immobilization of 5000 RU was specified. The wizard uses a 7 minute activation with a 1:1 mixture of 100 mM NHS (N-Hydroxysuccinimide) and 400 mM EDC (1-ethyl-3-(3-dimethylaminopropyl)-carbodiimide), injects the ligand in several pulses to achieve the desired level, then deactivates the remaining surface with a 7 minute pulse of ethanolamine.
IgG was captured by flowing a 10 nM solution at 10 μl/min for 1-1.5 minutes to reach a target RL for an Rₘₐₓ of 100-150 RU for the reaction. 5-10 concentrations of hPCSK9v5His or mPCSK9v5His antigens were flowed across the surface at 30 or 60 μl/minute for 4 minutes. 15-60 minutes dissociation time was allowed before regeneration of the Anti-IgG surface with a 60 second pulse of 10 mM Glycine pH 1.7.

T1 sequence (Q80W65 35-694 limits assumed): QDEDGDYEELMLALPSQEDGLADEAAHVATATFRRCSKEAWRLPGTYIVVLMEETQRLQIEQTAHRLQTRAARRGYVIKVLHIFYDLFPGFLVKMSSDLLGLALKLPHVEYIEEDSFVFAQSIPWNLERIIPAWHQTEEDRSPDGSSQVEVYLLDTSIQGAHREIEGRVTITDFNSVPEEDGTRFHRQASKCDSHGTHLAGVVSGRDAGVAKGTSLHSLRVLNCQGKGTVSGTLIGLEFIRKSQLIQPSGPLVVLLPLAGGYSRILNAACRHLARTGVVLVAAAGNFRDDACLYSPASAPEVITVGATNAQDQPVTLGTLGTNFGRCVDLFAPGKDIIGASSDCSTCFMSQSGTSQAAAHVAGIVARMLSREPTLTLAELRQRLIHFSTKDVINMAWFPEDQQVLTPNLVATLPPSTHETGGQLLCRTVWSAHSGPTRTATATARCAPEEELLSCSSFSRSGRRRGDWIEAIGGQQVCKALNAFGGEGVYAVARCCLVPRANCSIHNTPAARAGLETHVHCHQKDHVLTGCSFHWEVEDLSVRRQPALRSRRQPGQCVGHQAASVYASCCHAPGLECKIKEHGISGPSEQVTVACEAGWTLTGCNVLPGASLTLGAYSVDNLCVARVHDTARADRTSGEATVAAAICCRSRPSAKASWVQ

B1: 1B20 Fab (Fab, V domains shown)
VH: QVQLVQSGAEVKKPGESLKISCKGSGYSFTNYWISWVRQMPGKGLEWMGIIYPGDSYTNYSPSFQGQVTISADKSISTAYLQWSSLKASDTAMYYCARDYWYKPLFDIWGQGTLVTVSS
VL: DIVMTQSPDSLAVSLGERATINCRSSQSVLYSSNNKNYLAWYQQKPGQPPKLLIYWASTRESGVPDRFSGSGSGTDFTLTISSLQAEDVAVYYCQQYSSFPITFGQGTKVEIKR
Work on B1 yielded a Ka [1] of 2e+09 M⁻¹, a Kd [1] of 0.51 nM and a koff [1] of 7.18e-05 s⁻¹. For the same binder, the kon [1] was 141000 M⁻¹ s⁻¹ and the “IC50, Exopolar assay (PCSK9-dependent loss of cellular LDL uptake)” value [2] was 152 nM.

B2: m2CX1D05 Fab (Fab, V domains shown)
VH: QVQLVQSGAEVKKPGSSVKVSCKASGGTFNSHAISWVRQAPGQGLEWMGGINPILGIANYAQKFQGRVTITADESTSTAYMELSSLRSEDTAVYYCARHYEIQIGRYGMNVYYLMYRFASWGQGTLVTVSS
VL: DIQMTQSPSSLSASVGDRVTITCRASQGIRSALNWYQQKPGKAPKLLIYNGSTLQSGVPSRFSGSGSGTDFTLTISSLQPEDFAVYYCQQFDGDPTFGQGTKVEIKR
notes: also called Fab 1D05; mPCSK9 2CX1D05 Fab
For B2, the “IC50, inhibition of PCSK9-dependent loss of cellular LDL uptake (Exopolar assay, HEK cells, PCSK9 5 ug/ml)” value [2] was 97 nM and the Kd [3] was 3.35 nM.

B3: 1D05 Fab variant M48L (Fab, V domains shown)
VH: B2 VH with M48L
VL: B2 VL
notes: Tested as a Fab, with only the heavy chain mutated
For B3, the Kd [4] was 1.52 nM.

B4: 1D05 IgG2m4 (antibody, V domains shown)
VH: B2 VH
VL: B2 VL
notes: also called M2CX1D05 (IgG); IgG 1D05
For B4, the Kd [5] was 3.2 nM and the “IC50, inhibition of PCSK9-dependent loss of cellular LDL uptake (Exopolar assay, HEK cells, PCSK9 5 ug/ml)” value [2] was 85 nM.

B5: 1D05 Fab variant N50Y (Fab, V domains shown)
VH: B2 VH
VL: B2 VL with N50Y
notes: Tested as a Fab, with only the light chain mutated
B5 was tested, and the Kd [4] was 2.58 nM.

B6: 1D05 Fab variant N50T (Fab, V domains shown)
VH: B2 VH
VL: B2 VL with N50T
notes: as for B5
B6 gave a Kd [4] of 2.13 nM.

B7: 1D05 Fab variant M48V (Fab, V domains shown)
VH: B2 VH with M48V
VL: B2 VL
notes: as for B3
Work on B7 yielded a Kd [4] of 1.95 nM.

B8: 1D05 Fab variant M48L/M109L/M115L (Fab, V domains shown)
VH: B2 VH with M48L, M109L, M115L
VL: B2 VL
notes: as for B3
For B8, the Kd [4] was 1.13 nM.

B9: 1D05 Fab variant H32Y (Fab, V domains shown)
VH: B2 VH with H32Y
VL: B2 VL
notes: Site-directed mutant of 1D05, tested as a Fab, with only the heavy chain mutated
B9 was tested, and the Kd [4] was 2.01 nM.

B10: 1D05 Fab variant N50D (Fab, V domains shown)
VH: B2 VH
VL: B2 VL with N50D
notes: as for B5
For B10, the Kd [4] was 3.42 nM.

B11: 1D05 Fab variant H99Y (Fab, V domains shown)
VH: B2 VH with H99Y
VL: B2 VL
notes: as for B3
B11 gave a Kd [4] of 1.45 nM.

B12: 1D05 Fab variant M48A (Fab, V domains shown)
VH: B2 VH with M48A
VL: B2 VL
notes: as for B3
Work on B12 yielded a Kd [4] of 2.06 nM.

B13: 1D05 Fab variant N50Q (Fab, V domains shown)
VH: B2 VH
VL: B2 VL with N50Q
notes: as for B5
With B13 the Kd [4] was 0.615 nM.
